Tests used:
[1] = test system: differentiated GFP-ATXN1[82Q] SHSY5Y cells; experiment: Oxyblot of S100B induced oxidized proteins; assay type: cell-based; conditions: 50 μM pretreatment 1 hr, then 5 μM S100B 2 hrs; oxidized protein/β-tubulin
Method: FIG. 16: (a) GFP-ATXN1[82Q] and (b) GFP-ATXN1[30Q] SHSY5Y stable cells were placed on 12-well plates and subjected to treatment with 25 nM TPA for 3 days to produce differentiated SHSY5Y cell lines. Next, the cells were pretreated with 50 μM Synb1-ELP-TRTK for 1 hr then treated with 5 μM S100B for 2 hrs or treated with 150 μM H2O2 for 2 hrs, where control cells were treated with serum free media for 3 hrs. Then the cells were lysed and analyzed with the Oxyblot kit and a β-tubulin antibody. Shown is the resulting oxyblot/western blot data. (c) Optical densities of the protein bands were taken using ImageJ software. Graphs shown the ratio of oxidized protein/β-tubulin protein normalized to the control. Statistics were taken using the student's t-test. * GFP-ATXN1[82Q]: S100B vs Synb1-ELP-TRTK+S100B, P<0.05. ψ GFP-ATXN1[82Q]: H2O2 vs GFP-ATXN1[30Q]: H2O2, P<0.05.
GFP-ATXN1[82Q] or GFP-ATXN1[30Q] stable cells were placed on 12-well plates at a concentration of 60,000 cells per well. Cells were treated with 25 nM TPA for 3 days to produce differentiated SHSY5Y cell lines. […] Cell lysates were analyzed with the Oxyblot kit according to manufacturer's protocol ([…]) and with a β-tubulin antibody (Sigma), where 5 μgs of protein was loaded in each well of 4-20% acrylamide gel (Bio-Rad Laboratories, Hercules, Calif., USA). […]

[2] = target: T1, S100B (Homo sapiens, UniProt P04271); experiment: Thermal pull-down assay of ELP polypeptide with S100B; assay type: binding; conditions: 60 μM polypeptide, western blot with S100B antibody
T1 construct: purchased Sigma-Aldrich
T1 sequence (P04271 2-92 limits assumed): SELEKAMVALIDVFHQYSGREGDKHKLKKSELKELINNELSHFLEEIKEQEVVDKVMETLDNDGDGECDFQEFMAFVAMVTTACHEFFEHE
Method: FIG. 9 is a blot showing that CPP-ELP-TRTK12 interacts with S100B protein in vitro. Solutions containing 60 μM Synb1-ELP-TRTK12 or Synb1-ELP were mixed with or without 1 μM S100B in PBS for 30 min at 37° C. The solutions were then incubated in a hot water bath maintained at 50° C. for 5 minutes to induce SynB1-ELP-TRTK12 aggregation. After heating, the solutions were centrifugated at 14,000 rpm to recover the ELP polypeptide aggregates (pellets). The ELP polypeptide pellets were washed 3 times with PBS and reheated and pelleted between washes. To assess ELP polypeptide-S100B interactions, the remaining ELP pellets were subjected to western blotting using a S100B antibody.
Shown are the turbidity assay results of various concentrations of (b) Synb1-ELP-GGC and (c) Synb1-ELP-TRTK heated from 25° C. to 75° C. […] (d) Shown is the thermal pull-down assay procedure, where a solution containing S100B and Synb1-ELP-TRTK protein are allowed to interact at 37° C. in a microcentrifuge tube. […] Once the supernatant is removed the protein pellet can be analyzed by western blotting techniques to reveal protein-protein interactions. […] Solutions containing 60 μM Synb1-ELP-TRTK or Synb1-ELP-GGC (control peptide) were mixed with or without 1 μM S100B and subjected to thermal pull-down assay procedure and analyzed by western blotting using an S100B antibody. […]

With “Synb1-ELP-TRTK: thermally responsive S100B inhibitory polypeptide: Synb1 cell penetrating peptide, elastin-like polypeptide (ELP) and TRTK12 peptide fused” the “S100B's impact on the level of oxidized proteins” value [1] was “significantly blocked”, the “interaction with S100B dimer and monomer (FIG. 9)” value ([2]; 1 μM S100B in PBS, aggregation at 50° C.) was “strong interaction” and the “interaction with S100B (FIG. 11E)” value ([2]; 1 μM S100B, thermal cycling at 42° C.) was “bound both S100B monomers and dimers”.
